According to article doi:10.1101/2025.11.10.687702:

Assays:
[1] = molecular target: Rab7A(QL)-6xHis (human) (UniProt P51149); experiment: liposome flotation; purified VPS13C construct with SUVs (84.8% POPC, 10% POPE, 5% DGS-NTA, 0.2% Rhodamine-PE) to which His-tagged Rab7A(QL) or ATG7 was tethered; 1 mM GTP, 2 mM Mg2+, room temperature 20 min; OptiPrep gradient, top fraction on SDS-PAGE
[2] = molecular target: human Rab7A-Q67L with an N-terminal Strep tag (human) (UniProt P51149); experiment: pull-down; Strep-Rab7A(Q67L) and FLAG-tagged VPS13C constructs co-expressed in Expi293F; lysate in buffer A with 1 mM GTP and 2 mM MgCl2 on Strep-Tactin XT resin, 2 h at 4 °C, eluted with 50 mM biotin; SDS-PAGE with Coomassie stain and/or anti-FLAG western blot
human Rab7A-Q67L with an N-terminal Strep tag (human), sequence (P51149 whole entry Q67L): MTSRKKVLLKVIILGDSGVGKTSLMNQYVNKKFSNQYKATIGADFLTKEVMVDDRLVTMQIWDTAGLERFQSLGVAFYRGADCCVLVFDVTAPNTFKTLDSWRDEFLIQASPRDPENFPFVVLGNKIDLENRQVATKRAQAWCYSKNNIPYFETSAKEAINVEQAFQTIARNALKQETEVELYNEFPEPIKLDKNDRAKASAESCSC

VPS13C lacking the amphipathic helices of the ATG2_C motif, C-terminal 3xFLAG, sequence (Q709C8 whole entry): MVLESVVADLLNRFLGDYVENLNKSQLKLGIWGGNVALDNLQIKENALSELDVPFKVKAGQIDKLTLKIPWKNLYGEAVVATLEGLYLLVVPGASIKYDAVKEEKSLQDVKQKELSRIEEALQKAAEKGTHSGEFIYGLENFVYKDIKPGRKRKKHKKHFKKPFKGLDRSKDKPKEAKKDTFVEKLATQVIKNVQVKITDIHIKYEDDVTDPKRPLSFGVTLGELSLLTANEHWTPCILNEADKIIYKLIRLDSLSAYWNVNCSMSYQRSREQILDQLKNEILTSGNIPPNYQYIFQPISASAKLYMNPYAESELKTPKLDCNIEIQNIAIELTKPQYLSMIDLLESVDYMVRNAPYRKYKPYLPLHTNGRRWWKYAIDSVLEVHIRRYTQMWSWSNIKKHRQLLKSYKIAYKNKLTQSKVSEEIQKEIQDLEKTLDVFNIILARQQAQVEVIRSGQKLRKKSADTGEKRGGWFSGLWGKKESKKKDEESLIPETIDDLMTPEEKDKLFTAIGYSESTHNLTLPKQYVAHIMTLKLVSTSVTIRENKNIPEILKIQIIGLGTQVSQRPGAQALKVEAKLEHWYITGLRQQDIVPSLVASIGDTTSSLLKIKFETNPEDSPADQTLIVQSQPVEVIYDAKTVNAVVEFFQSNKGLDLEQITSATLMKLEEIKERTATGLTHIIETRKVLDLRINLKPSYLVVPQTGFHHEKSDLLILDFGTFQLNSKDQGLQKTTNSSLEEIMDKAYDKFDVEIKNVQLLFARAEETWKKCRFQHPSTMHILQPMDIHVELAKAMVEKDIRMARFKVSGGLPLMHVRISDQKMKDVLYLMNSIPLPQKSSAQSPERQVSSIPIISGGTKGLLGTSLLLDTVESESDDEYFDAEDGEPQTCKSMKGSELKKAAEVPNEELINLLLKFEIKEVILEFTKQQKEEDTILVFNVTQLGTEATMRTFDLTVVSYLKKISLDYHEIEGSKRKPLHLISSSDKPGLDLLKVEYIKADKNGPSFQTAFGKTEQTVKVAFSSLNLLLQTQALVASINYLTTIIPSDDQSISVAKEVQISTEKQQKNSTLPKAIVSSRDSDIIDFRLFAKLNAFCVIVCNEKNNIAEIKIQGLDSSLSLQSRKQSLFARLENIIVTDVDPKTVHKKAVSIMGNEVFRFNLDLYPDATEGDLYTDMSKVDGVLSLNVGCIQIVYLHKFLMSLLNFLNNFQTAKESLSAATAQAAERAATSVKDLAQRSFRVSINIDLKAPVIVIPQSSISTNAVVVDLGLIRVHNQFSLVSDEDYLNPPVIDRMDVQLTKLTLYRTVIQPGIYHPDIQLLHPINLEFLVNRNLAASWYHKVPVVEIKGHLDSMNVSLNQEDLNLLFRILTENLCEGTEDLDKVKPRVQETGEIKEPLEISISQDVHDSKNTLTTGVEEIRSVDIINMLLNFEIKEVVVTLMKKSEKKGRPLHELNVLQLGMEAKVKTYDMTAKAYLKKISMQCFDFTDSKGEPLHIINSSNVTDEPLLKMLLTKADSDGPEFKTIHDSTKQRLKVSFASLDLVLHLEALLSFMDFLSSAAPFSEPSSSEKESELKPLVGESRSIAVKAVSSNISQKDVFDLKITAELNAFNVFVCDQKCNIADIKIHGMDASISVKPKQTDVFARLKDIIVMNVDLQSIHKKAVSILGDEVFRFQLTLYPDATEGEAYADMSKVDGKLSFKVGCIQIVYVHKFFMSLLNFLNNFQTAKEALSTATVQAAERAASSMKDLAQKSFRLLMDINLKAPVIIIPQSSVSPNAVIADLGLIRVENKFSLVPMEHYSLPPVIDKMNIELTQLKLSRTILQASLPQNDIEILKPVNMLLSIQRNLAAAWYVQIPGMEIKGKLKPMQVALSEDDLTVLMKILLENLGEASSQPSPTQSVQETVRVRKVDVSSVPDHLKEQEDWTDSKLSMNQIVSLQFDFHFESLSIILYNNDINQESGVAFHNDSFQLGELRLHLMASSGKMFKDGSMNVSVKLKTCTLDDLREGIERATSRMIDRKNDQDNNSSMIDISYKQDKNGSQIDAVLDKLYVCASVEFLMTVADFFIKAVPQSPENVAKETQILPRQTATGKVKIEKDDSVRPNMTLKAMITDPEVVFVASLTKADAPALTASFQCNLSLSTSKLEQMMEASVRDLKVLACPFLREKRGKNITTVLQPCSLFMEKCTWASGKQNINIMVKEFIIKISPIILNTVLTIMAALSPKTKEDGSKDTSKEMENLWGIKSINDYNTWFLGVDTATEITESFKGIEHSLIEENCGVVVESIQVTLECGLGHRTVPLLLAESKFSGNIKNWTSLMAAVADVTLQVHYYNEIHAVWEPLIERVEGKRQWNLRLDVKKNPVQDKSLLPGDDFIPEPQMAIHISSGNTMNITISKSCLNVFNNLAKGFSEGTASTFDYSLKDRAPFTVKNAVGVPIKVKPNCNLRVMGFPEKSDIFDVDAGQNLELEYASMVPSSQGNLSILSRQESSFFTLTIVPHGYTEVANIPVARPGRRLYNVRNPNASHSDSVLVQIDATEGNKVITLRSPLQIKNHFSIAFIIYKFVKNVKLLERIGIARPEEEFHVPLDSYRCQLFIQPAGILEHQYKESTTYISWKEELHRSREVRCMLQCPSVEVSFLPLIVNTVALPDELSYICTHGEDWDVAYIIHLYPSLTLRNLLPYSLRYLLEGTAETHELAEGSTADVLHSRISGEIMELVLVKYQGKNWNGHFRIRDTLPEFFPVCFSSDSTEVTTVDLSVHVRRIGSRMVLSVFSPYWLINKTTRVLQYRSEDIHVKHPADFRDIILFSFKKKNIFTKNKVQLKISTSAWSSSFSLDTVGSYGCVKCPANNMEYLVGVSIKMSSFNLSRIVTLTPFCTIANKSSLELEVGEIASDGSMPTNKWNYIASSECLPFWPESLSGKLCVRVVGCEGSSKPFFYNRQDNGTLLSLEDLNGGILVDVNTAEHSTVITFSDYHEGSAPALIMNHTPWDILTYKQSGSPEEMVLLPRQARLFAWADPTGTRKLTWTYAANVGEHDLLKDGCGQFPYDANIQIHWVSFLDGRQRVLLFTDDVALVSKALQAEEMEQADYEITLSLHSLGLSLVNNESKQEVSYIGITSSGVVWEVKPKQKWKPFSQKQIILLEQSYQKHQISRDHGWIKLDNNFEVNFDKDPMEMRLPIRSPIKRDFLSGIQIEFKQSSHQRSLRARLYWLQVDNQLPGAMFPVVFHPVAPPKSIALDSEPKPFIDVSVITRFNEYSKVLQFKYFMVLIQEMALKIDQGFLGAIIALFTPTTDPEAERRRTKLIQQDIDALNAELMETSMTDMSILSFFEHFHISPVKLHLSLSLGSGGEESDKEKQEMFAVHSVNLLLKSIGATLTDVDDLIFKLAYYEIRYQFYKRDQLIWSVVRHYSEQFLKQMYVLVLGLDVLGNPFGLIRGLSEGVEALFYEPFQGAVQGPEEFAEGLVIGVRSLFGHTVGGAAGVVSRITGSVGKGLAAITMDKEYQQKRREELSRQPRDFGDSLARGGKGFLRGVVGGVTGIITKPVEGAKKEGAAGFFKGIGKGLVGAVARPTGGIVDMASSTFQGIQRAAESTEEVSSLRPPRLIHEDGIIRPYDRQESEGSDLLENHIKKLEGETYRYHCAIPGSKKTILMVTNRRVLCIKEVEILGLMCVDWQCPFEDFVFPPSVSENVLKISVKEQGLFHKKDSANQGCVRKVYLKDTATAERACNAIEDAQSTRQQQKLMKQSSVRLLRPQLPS
Rab7A(QL)-6xHis (human), sequence (P51149 whole entry Q67L): as the sequence (P51149 whole entry Q67L) above

Substance | percent co-floated with SUVs bearing His-tagged Rab7A [1] [%] | fraction of total overexpressed VPS13C retained by Rab7(Q67L) [2] [%]
VPS13C lacking the amphipathic helices of the ATG2_C motif, C-terminal 3xFLAG (from UniProt Q709C8 1-3753) (natural protein) | > 80 | 
full-length human VPS13C with a C-terminal 3xFLAG tag, Q709C8 1-3753 |  | 5
